Measurements reported in the Human Domainome abundance scans (Beltran et al. 2025).
± gives the uncertainty stated by the source.

B1: SAM and SH3 domain-containing protein 1, residues 630 to 700; numbered along this chain, O94885 (parent)
chain: GRPPQPKSVEDLLDRINLKEHMPTFLFNGYEDLDTFKLLEEEDLDELNIRDPEHRAVLLTAVELLQEYDSN

Variants of: B1
Assay: abundance fitness (aPCA) (normalised: wild type 0, dead -1); higher = more abundant; growth selection in yeast, the domain comes from the species named
Conditions: Homo sapiens

For GRPPQPKSVTDLLDRINLKEHMPTFLFNGYEDLDTFKLLEEEDLDELNIRDPEHRAVLLTAVELLQEYDSN [E10T], which abundance fitness is on record?
The abundance fitness was -0.559 ± 0.052.

Which abundance fitness does the source give for GRPPQPKSVFDLLDRINLKEHMPTFLFNGYEDLDTFKLLEEEDLDELNIRDPEHRAVLLTAVELLQEYDSN [E10F] here?
Its abundance fitness is -0.443 ± 0.054.

Which abundance fitness does the source give for GRPPQPKSVCDLLDRINLKEHMPTFLFNGYEDLDTFKLLEEEDLDELNIRDPEHRAVLLTAVELLQEYDSN [E10C] here?
The abundance fitness was -0.463 ± 0.071.

With GRPPQPKSVKDLLDRINLKEHMPTFLFNGYEDLDTFKLLEEEDLDELNIRDPEHRAVLLTAVELLQEYDSN [E10K] as the variant, how does the abundance fitness read?
Its abundance fitness is -0.407 ± 0.066.

For GRPPQPKSCEDLLDRINLKEHMPTFLFNGYEDLDTFKLLEEEDLDELNIRDPEHRAVLLTAVELLQEYDSN [V9C], which abundance fitness is on record?
The abundance fitness was -0.892 ± 0.13.

With GRPPQPKSTEDLLDRINLKEHMPTFLFNGYEDLDTFKLLEEEDLDELNIRDPEHRAVLLTAVELLQEYDSN [V9T] as the variant, how does the abundance fitness read?
Its abundance fitness is -0.701 ± 0.056.

For GRPPQPKSAEDLLDRINLKEHMPTFLFNGYEDLDTFKLLEEEDLDELNIRDPEHRAVLLTAVELLQEYDSN [V9A], which abundance fitness is on record?
Its abundance fitness is -0.844 ± 0.073.

With GRPPQPKSKEDLLDRINLKEHMPTFLFNGYEDLDTFKLLEEEDLDELNIRDPEHRAVLLTAVELLQEYDSN [V9K] as the variant, how does the abundance fitness read?
Its abundance fitness is -0.701 ± 0.077.

With GRPPQPKSGEDLLDRINLKEHMPTFLFNGYEDLDTFKLLEEEDLDELNIRDPEHRAVLLTAVELLQEYDSN [V9G] as the variant, how does the abundance fitness read?
The abundance fitness was -0.868 ± 0.081.

With GRPPQPKSHEDLLDRINLKEHMPTFLFNGYEDLDTFKLLEEEDLDELNIRDPEHRAVLLTAVELLQEYDSN [V9H] as the variant, how does the abundance fitness read?
The abundance fitness was -0.909 ± 0.079.

Which abundance fitness does the source give for GRPPQPKSWEDLLDRINLKEHMPTFLFNGYEDLDTFKLLEEEDLDELNIRDPEHRAVLLTAVELLQEYDSN [V9W] here?
Its abundance fitness is -1.05 ± 0.17.

Which abundance fitness does the source give for GRPPQPKSDEDLLDRINLKEHMPTFLFNGYEDLDTFKLLEEEDLDELNIRDPEHRAVLLTAVELLQEYDSN [V9D] here?
The abundance fitness was -0.736 ± 0.089.

Which abundance fitness does the source give for GRPPQPKSLEDLLDRINLKEHMPTFLFNGYEDLDTFKLLEEEDLDELNIRDPEHRAVLLTAVELLQEYDSN [V9L] here?
The abundance fitness was 0.032 ± 0.035.

Which abundance fitness does the source give for GRPPQPKSEEDLLDRINLKEHMPTFLFNGYEDLDTFKLLEEEDLDELNIRDPEHRAVLLTAVELLQEYDSN [V9E] here?
The abundance fitness was -0.876 ± 0.13.

For GRPPQPKSPEDLLDRINLKEHMPTFLFNGYEDLDTFKLLEEEDLDELNIRDPEHRAVLLTAVELLQEYDSN [V9P], which abundance fitness is on record?
The abundance fitness was -0.632 ± 0.063.

With GRPPQPKSIEDLLDRINLKEHMPTFLFNGYEDLDTFKLLEEEDLDELNIRDPEHRAVLLTAVELLQEYDSN [V9I] as the variant, how does the abundance fitness read?
Its abundance fitness is -0.235 ± 0.046.

Which abundance fitness does the source give for GRPPQPKSREDLLDRINLKEHMPTFLFNGYEDLDTFKLLEEEDLDELNIRDPEHRAVLLTAVELLQEYDSN [V9R] here?
Its abundance fitness is -0.969 ± 0.084.

With GRPPQPKSYEDLLDRINLKEHMPTFLFNGYEDLDTFKLLEEEDLDELNIRDPEHRAVLLTAVELLQEYDSN [V9Y] as the variant, how does the abundance fitness read?
Its abundance fitness is -0.883 ± 0.087.

Which abundance fitness does the source give for GRPPQPKSMEDLLDRINLKEHMPTFLFNGYEDLDTFKLLEEEDLDELNIRDPEHRAVLLTAVELLQEYDSN [V9M] here?
Its abundance fitness is -0.52 ± 0.07.

Which abundance fitness does the source give for GRPPQPKSQEDLLDRINLKEHMPTFLFNGYEDLDTFKLLEEEDLDELNIRDPEHRAVLLTAVELLQEYDSN [V9Q] here?
Its abundance fitness is -0.796 ± 0.087.

Which abundance fitness does the source give for GRPPQPKYVEDLLDRINLKEHMPTFLFNGYEDLDTFKLLEEEDLDELNIRDPEHRAVLLTAVELLQEYDSN [S8Y] here?
The abundance fitness was -0.899 ± 0.085.

With GRPPQPKQVEDLLDRINLKEHMPTFLFNGYEDLDTFKLLEEEDLDELNIRDPEHRAVLLTAVELLQEYDSN [S8Q] as the variant, how does the abundance fitness read?
Its abundance fitness is -0.55 ± 0.1.

With GRPPQPKTVEDLLDRINLKEHMPTFLFNGYEDLDTFKLLEEEDLDELNIRDPEHRAVLLTAVELLQEYDSN [S8T] as the variant, how does the abundance fitness read?
The abundance fitness was -0.244 ± 0.052.

For GRPPQPKLVEDLLDRINLKEHMPTFLFNGYEDLDTFKLLEEEDLDELNIRDPEHRAVLLTAVELLQEYDSN [S8L], which abundance fitness is on record?
The abundance fitness was -0.818 ± 0.067.

For GRPPQPKMVEDLLDRINLKEHMPTFLFNGYEDLDTFKLLEEEDLDELNIRDPEHRAVLLTAVELLQEYDSN [S8M], which abundance fitness is on record?
Its abundance fitness is -1.03 ± 0.14.

Which abundance fitness does the source give for GRPPQPKKVEDLLDRINLKEHMPTFLFNGYEDLDTFKLLEEEDLDELNIRDPEHRAVLLTAVELLQEYDSN [S8K] here?
Its abundance fitness is -0.759 ± 0.11.

Which abundance fitness does the source give for GRPPQPKFVEDLLDRINLKEHMPTFLFNGYEDLDTFKLLEEEDLDELNIRDPEHRAVLLTAVELLQEYDSN [S8F] here?
The abundance fitness was -0.984 ± 0.11.

For GRPPQPKPVEDLLDRINLKEHMPTFLFNGYEDLDTFKLLEEEDLDELNIRDPEHRAVLLTAVELLQEYDSN [S8P], which abundance fitness is on record?
The abundance fitness was -0.758 ± 0.087.

For GRPPQPKNVEDLLDRINLKEHMPTFLFNGYEDLDTFKLLEEEDLDELNIRDPEHRAVLLTAVELLQEYDSN [S8N], which abundance fitness is on record?
Its abundance fitness is -0.305 ± 0.053.

For GRPPQPKGVEDLLDRINLKEHMPTFLFNGYEDLDTFKLLEEEDLDELNIRDPEHRAVLLTAVELLQEYDSN [S8G], which abundance fitness is on record?
Its abundance fitness is -0.536 ± 0.076.

With GRPPQPKAVEDLLDRINLKEHMPTFLFNGYEDLDTFKLLEEEDLDELNIRDPEHRAVLLTAVELLQEYDSN [S8A] as the variant, how does the abundance fitness read?
The abundance fitness was -0.889 ± 0.093.

With GRPPQPKVVEDLLDRINLKEHMPTFLFNGYEDLDTFKLLEEEDLDELNIRDPEHRAVLLTAVELLQEYDSN [S8V] as the variant, how does the abundance fitness read?
The abundance fitness was -1.02 ± 0.1.

With GRPPQPKWVEDLLDRINLKEHMPTFLFNGYEDLDTFKLLEEEDLDELNIRDPEHRAVLLTAVELLQEYDSN [S8W] as the variant, how does the abundance fitness read?
Its abundance fitness is -1.35 ± 0.24.

For GRPPQPKDVEDLLDRINLKEHMPTFLFNGYEDLDTFKLLEEEDLDELNIRDPEHRAVLLTAVELLQEYDSN [S8D], which abundance fitness is on record?
The abundance fitness was -0.316 ± 0.076.

With GRPPQPKEVEDLLDRINLKEHMPTFLFNGYEDLDTFKLLEEEDLDELNIRDPEHRAVLLTAVELLQEYDSN [S8E] as the variant, how does the abundance fitness read?
Its abundance fitness is -1.17 ± 0.25.

With GRPPQPKCVEDLLDRINLKEHMPTFLFNGYEDLDTFKLLEEEDLDELNIRDPEHRAVLLTAVELLQEYDSN [S8C] as the variant, how does the abundance fitness read?
Its abundance fitness is -0.701 ± 0.087.

With GRPPQPKHVEDLLDRINLKEHMPTFLFNGYEDLDTFKLLEEEDLDELNIRDPEHRAVLLTAVELLQEYDSN [S8H] as the variant, how does the abundance fitness read?
The abundance fitness was -0.899 ± 0.09.

Which abundance fitness does the source give for GRPPQPKRVEDLLDRINLKEHMPTFLFNGYEDLDTFKLLEEEDLDELNIRDPEHRAVLLTAVELLQEYDSN [S8R] here?
The abundance fitness was -0.836 ± 0.082.
